Target: T1, DNAJB6b wt (human, UniProt O75190-2 1-241)
T1 construct: DNAJB6b, human, the 241-residue b isoform of DNAJB6; No tags; also called wt DNAJB6b; unlabelled DNAJB6b
Test: native gel or EMSA; agarose gel imaged on an IR fluorescence scanner; 5 nM DNAJB6b-CCys-IR680 mixed with unlabelled DNAJB6b-wt to total concentrations of 5 nM to 32 µM
Details: both partners purified

T1 sequence (O75190 other isoform, or with tags, fused parts or gaps): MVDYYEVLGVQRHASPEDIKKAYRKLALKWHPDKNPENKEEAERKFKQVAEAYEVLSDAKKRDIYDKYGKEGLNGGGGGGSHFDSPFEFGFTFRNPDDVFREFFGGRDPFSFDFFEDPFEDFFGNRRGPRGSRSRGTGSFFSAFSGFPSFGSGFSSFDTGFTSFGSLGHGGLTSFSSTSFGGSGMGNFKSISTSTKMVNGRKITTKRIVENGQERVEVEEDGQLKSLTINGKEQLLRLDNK

binding result: binds
B1: DNAJB6b-CCys-IR680 (natural protein)
chain: not shown
modifications: IRdye-680 (maleimide dye) on the engineered C-terminal cysteine
notes: DNAJB6b, human, the 241-residue b isoform of DNAJB6, no tags; a cysteine residue added at the C-terminus (variant CCys); also called IR680-labelled DBAJB6b; DNAJB6-CCys labelled with IRdye680; source: E. coli BL21 DE3 pLysS star, purified as wt with 1 mM DTT in all buffers; labelled with IRdye680 maleimide, free dye removed by SEC

Reference: paper PMC8781954, “High-Efficiency Expression and Purification of DNAJB6b Based on the pH-Modulation of Solubility and Denaturant-Modulation of Size” (Molecules, 2022)
